Test: soluble on expression in E. coli; label from the status in PepcDB or PDB records

Sequence | soluble on expression in E. coli
MRFEDIGISKVDKVCLVDRLGCQENLVGTVHVTTTHIIFRAENGSKELWLATGLISSVEKGTLTAAGCMLVIRCKHFQVITLLISRDKSCQDLYETLQRAAKPVSVNVTELLAFENREPVEDVRGWRRLDWNSEMTRQGITKSQWTESNINEGYTICDTYPNKLWFPTAASTSVLLGSCKFRSRGRLPVLTYFHQQTEAALCRCAQPLTGFSARCVEDEKLMELVGKANTNSDNLFLVDTRPRVNAMVNKVQGKGFEDERNYSNMRFHFFDIENIHVMRASQARLLDAVTKCRDVTEYWKTLEASGWLKHVRSVVECSLFLAESISRGTSCVVHCSDGWDRTSQVVALCQLLLDPYYRTIHGFQVLIEKDWLGFGHKFDDRCGHVGALNDEAGKEVSPIFTQWLDCIWQIMQQKPRAFQFNERYLIEMHEHVYSCQFGTFIGNCDKDRRDLNLSKRTKSLWTWMDARHDDYMNPFYSPTAHVALLDLDTRAARFTVWTAMYNRFDNGLQPRERLEDLTMAAMEHVGVLESHVAQLRTRLAELKTQQNQQITSTNTPTNMVDSGMSSATDDLKNLSLSHPLDPLSSTLPILERATSQESGVMDSSLYYPDEALTKYSLKWQPLRGADRCSNPACRGEFSSTIERRIHCHLCGMIFCRRCLKVSADERERVCDKCKTD | not soluble
MRFYIKTFGCQMNENDSEAMAGLLVKEGFTPASSPEEADVVIINTCAVRRKSEEKAYSELGQVLKLKKKKKIVVGVAGCVAEKEREKFLEKGADFVLGTRAVPRVTEAVKKALEGEKVALFEDHLDEYTHELPRIRTSRHHAWVTIIHGCDRFCTYCIVPYTRGRERSRPMADILEEVKKLAEQGYREVTFLGQNVDAYGKDLKDGSSLAKLLEEASKIEGIERIWFLTSYPTDFSDELIEVIAKNPKVAKSVHLPVQSGSNRILKLMNRRYTKEEYLALLEKIRSKVPEVAISSDIIVGFPTETEEDFMETVDLVEKAQFERLNLAIYSPREGTVAWKYYKDDVPYEEKVRRMQFLMNLQKRINRKLNERYRGKTVRIIVEAQAKNGLFYGRDIRNKIIAFEGEDWMIGRFADVKVEKITAGPLYGKVVWVEKTPSPVSSSE | soluble
MRGENTMTPVFELKNVNYYYDHKKVLENINIKINKGEFLAIVGPNGAGKSTLLKLILGLLPLQSGEIFVEGIDFKNKKTSIKLSYVSQKANAFNSGFPASVKEVVLSGLTKTKRLFQTFNSKDNEKVIKVLERLNISDLIHKNIAELSGGQQQRVMIARALISEPAVLVLDEPTNGIDAKHVSEFYNTLDQLKQEGITIILVTHDIGVVADTATEVACLNKHLHFHGTTDEFKSLDEVEISKIYGHPVRFVDHQHNRECCN | not soluble
MRGFLMFTSGPFDIDFVVLWVDGSDEKWLQKRAIYSSTKQQNNAVRFRDYGIFKYWFRAVAKYAPWVHHVYLVTDEQIPNWLSIQNSKVSVIDHKSIMPEDALPTFNSSAIELNIANIPGLSEHFVYFNDDMFLNRQVTPMDFFSEDGLPKDSAVQNAIMPVEDFDHMTANNVMLINQNFNKYQVLRRHPFRFFNFRYGFLNVLSICLLPWPRFTRFQDPHVPISFRKSVFEKVLNLHRDAWNETSHNRFRNRNDNTIWLIRYYQLVTAQFNPRTPFVGKKYNIGEMKKIVNDINTGKHKMICINDQNVSMAEFDNLTKQLRSTFRSKLPQKSEFEKMAGDPLEHHHHHH | not soluble
MRGKRVVLPDKDHQACGLFGVIDRSGRRFSGEMAINAMINMKVRGNGLGGGFAAYGIYPEYKDYYALHVMFQDWDMEAKHRVDEFLDANFDVVYAEEIPVNPEANVASPPLFWRYFVSPNKKGDEKKLSDDDYVVKKVMEINTKINNAYVVSSGKDMGVFKGVGFPEDIAEYFMLAEEYKGYMWTAHSRFPTNTPGWWGGAHPFCILDWTVVHNGEISSYGTNKRYLEMFGYYCTLLTDTEVMAYAVDLLMRKQGLPIEIVSKIFAPPMWDHIDIMDEKKKKFYTALRMNYGPLLINGPWTIVVARHGEMFGITDRIRLRPITSGEKGDLLFVSSEESAIRAVCPDLDRVYTPMGGEPVIGRLKSREKELAKQLSEVE | not soluble
MRGKVYLVGAGFGGPEHLTLKALRVLEVAEVVLHDRLVHPGVLALAKGELVPVGKEGYGGKTPQEAITARLIALAREGRVVARLKGGDPMVFGRGGEEALALRRAGIPFEVVPGVTSAVGALSALGLPLTHRGLARSFAVATGHDPALPLPRADTLVLLMPLHTLGGLKERLLERFPPETPLALLARVGWPGEAVRLGRVEDLPGLGEGLPSPALLVVGKVVGLYGELLPKDHGL | soluble
MRGSHHHHHHGMASMSVSTASTEMSVRKIAAHMKSNPNAKVIFMVGAGISTSCGIPDFRSPGTGLYHNLARLKLPYPEAVFDVDFFQSDPLPFYTLAKELYPGNFRPSKFHYLLKLFQDKDVLKRVYTQNIDTLERQAGVKDDLIIEAHGSFAHCHCIGCGKVYPPQVFKSKLAEHPIKDFVKCDVCGELVKPAIVFFGEDLPDSFSETWLNDSEWLREKITTSGKHPQQPLVIVVGTSLAVYPFASLPEEIPRKVKRVLCNLETVGDFKANKRPTDLIVHQYSDEFAEQLVEELGWQEDFEKILTAQ | soluble
MRGSHHHHHHGMASMTGGNNMGRDLYDDDDKDPGRRMMHNSNADDAALTTDVVVVGGGPVGLMLAGELRAGGVGALVLEKLVEPVGHDRAGALHIRTVETLDLRGLLDRFLEGTQVAKGLPFAGIFTQGLDFGLVDTRHPYTGLVPQSRTEALLAEHAREAGAEIPRGHEVTRLRQDAEAVEVTVAGPSGPYPVRARYGVGCDGGRSTVRRLAADRFPGTEATVRALIGYVTTPEREVPRRWERTPDGILVLAFPPEGGLGPGWSSSSTGHSPAADEGPVTLEDLGAAVARVRGTPLTLTEPVSWLSRFGDASRQAKRYRSGRVLLAGDAAHVHFPIGGQGLNTGLQDAVNLGWKLAARVRGWGSEELLDTYHDERHPVAERVLLNTRAQLALMRPDEQHTTPLRGFVEELLGTDEVNRYFTGMITGTDVRYATFAPAASARPHPWPGRFAGGLVLSRPSGEPVPVAELLRSARPLLLDLAGRADLREATRPWSDRVSVVAGEATVEPPAQALLVRPDGYVAWAGSPAATADELRASLARWFGPPANREPVGHQERAGRRGRPLSALKPE | soluble
MRGSHHHHHHGMASNEFPVVLVINCGSSSIKFSVLDVATCDVLMAGIADGMNTENAFLSINGDKPINLAHSNYEDALKAIAFELEKRDLTDSVALIGHRIAHGGELFTQSVIITDEIIDNIRRVSPLAPLHNYANLSGIDAARHLFPAVRQVAVFDTSFHQTLAPEAYLYGLPWEYFSSLGVRRYGFHGTSHRYVSRRAYELLDLDEKDSGLIVAHLGNGASICAVRNGQSVDTSMGMTPLEGLMMGTRSGDVDFGAMAWIAKETGQTLSDLERVVNKESGLLGISGLSSDLRVLEKAWHEGHERARLAIKTFVHRIARHIAGHAASLHRLDGIIFTGGIGENSVLIRQLVIEHLGVLGLTLDVEMNKQPNSHGERIISANPSQVICAVIPTNEEKMIALDAIHLGNVKAPVEFA | soluble
MRGSHHHHHHTDPALRASKVTPQPKIGFVSLGCPKNLVDSERILTELRTEGYDVVPSYDDADMVIVNTCGFIDSAVQESLEAIGEALNENGKVIVTGCLGAKEDQIREVHPKVLEITGPHSYEQVLEHVHHYVPKPKHNPFLSLVPEQGVKLTPRHYAYLKISEGCNHRCTFCIIPSMRGDLVSRPIGEVLSEAKRLVDAGVKEILVISQDTSAYGVDVKHRTGFHNGEPVKTSMVSLCEQLSKLGIWTRLHYVYPYPHVDDVIPLMAEGKILPYLDIPLQHASPRILKLMKRPGSVDRQLARIKQWREICPELTLRSTFIVGFPGETEEDFQMLLDFLKEARLDRVGCFKYSPVEGADANALPDQVPEEVKEERWNRFMQLQQQISAERLQEKVGREILVIIDEVDEEGAIGRSMADAPEIDGAVYLNGETNVKPGDILRVKVEHADEYDLWGSRVGLCGR | soluble
MRHLSLLLCCLLAWPARAETLVEIPTRPGVALRFLLLEPPGPPRANLILLAGGEGLLKLSAEGELGAGRGNFLVRTRQGWADMGFRVAVVDAPSDMPRGLLGDFRERAEHAADIAAVSDYLRRGAALPVWLAGTSRGTTSAAAVALNRPDAADGLLLTSSIDAGRGSLAGLPLERLAVPVLMIQHRRDECRASRPGNLGPVLDRLRADAPRELMLLDGGGSEGDPCQPWAWHGYNGIERRVLGLAGAWMLAHGRHLEHHHHHH | not soluble

Reference: the DeepSol protein solubility set
